Data set [1] has as its target PglX (Salmonella enterica serovar Typhimurium ST313 strain D23580 BREX methyltransferase), wild type (Salmonella enterica serovar Typhimurium ST313 strain D23580). The data set is described as follows: mass photometry; PglX proteins with equimolar Ocr; TwoMP (Refeyn); 1 uM for 1 h on ice in 10 mM Tris pH 7.9, 25 mM NaCl, 0.5 uM SAM, 0.5 uM MgCl2, then diluted to 5 nM.

The target in data set [2] is T1, PglX (PglX-SAM) (Salmonella enterica, UniProt A0A6C7IK61).
T1 construct: gene STMMW_44401
The note with it: PglX incubated with 1 mM SAM before crystallisation; methyltransferase pocket between GSG and NPPY motifs; no DNA.

Data set [3] addresses T2, PglX-SAM:Ocr complex (Salmonella enterica, UniProt A0A6C7IK61).
T2 construct: gene STMMW_44401
The note with it: PglX incubated with 1 mM SAM, then Ocr, before crystallisation; same methyltransferase pocket.

Data set [4] deals with T3, PglX NTD (Salmonella D23580 (S. Typhimurium), UniProt A0A6C7IK61 1-661).
T3 sequence: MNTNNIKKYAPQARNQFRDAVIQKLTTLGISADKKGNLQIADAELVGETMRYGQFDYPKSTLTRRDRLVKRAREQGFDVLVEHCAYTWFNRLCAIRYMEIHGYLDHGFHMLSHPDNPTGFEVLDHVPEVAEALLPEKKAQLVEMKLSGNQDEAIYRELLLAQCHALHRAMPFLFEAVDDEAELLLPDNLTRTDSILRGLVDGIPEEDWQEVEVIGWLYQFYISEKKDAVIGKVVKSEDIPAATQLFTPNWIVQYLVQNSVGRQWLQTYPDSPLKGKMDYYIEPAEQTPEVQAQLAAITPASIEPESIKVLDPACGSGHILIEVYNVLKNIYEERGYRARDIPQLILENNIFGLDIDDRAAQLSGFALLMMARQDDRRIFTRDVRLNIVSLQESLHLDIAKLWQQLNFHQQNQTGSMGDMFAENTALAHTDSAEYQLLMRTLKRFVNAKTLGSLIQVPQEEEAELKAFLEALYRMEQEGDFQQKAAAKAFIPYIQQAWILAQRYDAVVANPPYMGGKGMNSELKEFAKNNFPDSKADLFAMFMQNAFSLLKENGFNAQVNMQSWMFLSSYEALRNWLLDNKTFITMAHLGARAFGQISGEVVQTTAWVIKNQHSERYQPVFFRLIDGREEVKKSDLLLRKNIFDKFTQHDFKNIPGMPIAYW
The data set is described as follows: mass photometry; NTD peak may include free DNA; mass photometry (Refeyn); buffer, salt, pH and temperature not given in the material. The note with it: protein: recombinant; tags: untagged (His/SUMO tag removed by hSENP2); blunt.

Data set [5] concerns the target T4, PglX WT (Salmonella D23580 (S. Typhimurium), UniProt A0A6C7IK61 1-1225).
T4 sequence: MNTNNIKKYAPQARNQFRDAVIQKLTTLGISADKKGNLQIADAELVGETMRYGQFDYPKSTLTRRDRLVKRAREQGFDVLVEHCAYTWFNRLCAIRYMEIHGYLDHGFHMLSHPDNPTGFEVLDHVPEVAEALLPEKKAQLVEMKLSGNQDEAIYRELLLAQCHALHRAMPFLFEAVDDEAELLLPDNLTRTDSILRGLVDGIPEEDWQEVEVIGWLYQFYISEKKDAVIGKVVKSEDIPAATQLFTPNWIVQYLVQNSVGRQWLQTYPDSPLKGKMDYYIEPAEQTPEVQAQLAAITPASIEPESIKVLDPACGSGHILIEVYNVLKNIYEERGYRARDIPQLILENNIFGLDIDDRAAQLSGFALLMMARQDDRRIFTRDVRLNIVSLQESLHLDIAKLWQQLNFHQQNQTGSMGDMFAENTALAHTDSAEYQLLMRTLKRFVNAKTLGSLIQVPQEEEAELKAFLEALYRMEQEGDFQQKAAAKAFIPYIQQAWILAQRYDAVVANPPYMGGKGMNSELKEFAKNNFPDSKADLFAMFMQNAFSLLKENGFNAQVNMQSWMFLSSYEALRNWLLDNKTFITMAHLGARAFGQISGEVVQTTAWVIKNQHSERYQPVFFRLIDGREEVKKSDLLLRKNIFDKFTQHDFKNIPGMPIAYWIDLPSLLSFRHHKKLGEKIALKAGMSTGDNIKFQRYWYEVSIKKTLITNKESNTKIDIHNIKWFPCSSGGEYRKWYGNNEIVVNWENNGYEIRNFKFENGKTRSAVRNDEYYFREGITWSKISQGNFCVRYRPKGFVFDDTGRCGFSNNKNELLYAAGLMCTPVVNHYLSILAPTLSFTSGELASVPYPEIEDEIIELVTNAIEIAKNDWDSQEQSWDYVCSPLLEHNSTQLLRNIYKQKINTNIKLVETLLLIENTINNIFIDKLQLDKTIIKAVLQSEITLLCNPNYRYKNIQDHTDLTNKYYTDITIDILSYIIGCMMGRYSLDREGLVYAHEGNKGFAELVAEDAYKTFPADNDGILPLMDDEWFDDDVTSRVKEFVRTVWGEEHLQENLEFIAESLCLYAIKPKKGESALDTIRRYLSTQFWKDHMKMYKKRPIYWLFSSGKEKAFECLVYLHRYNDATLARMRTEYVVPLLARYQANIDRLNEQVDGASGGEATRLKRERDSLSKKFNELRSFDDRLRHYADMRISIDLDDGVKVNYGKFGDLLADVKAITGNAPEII
The data set is described as follows: mass photometry; 1:1 and 2:1 complexes; mass photometry (Refeyn); buffer, salt, pH and temperature not given in the material. The note with it: protein: recombinant; tags: untagged (His/SUMO tag removed by hSENP2); blunt.

The target of data set [6] is T4, PglX WT. The data set is described as follows: mass photometry; 1:1, 2:1 and 3:1 complexes; mass photometry (Refeyn); buffer, salt, pH and temperature not given in the material. Particulars: protein: recombinant; tags: untagged (His/SUMO tag removed by hSENP2); blunt.
Data set [7] has as its target T4, PglX WT. The data set is described as follows: mass photometry; 1:1, 2:1 and 3:1 complexes; non-specific; mass photometry (Refeyn); buffer, salt, pH and temperature not given in the material. Particulars: protein: recombinant; tags: untagged (His/SUMO tag removed by hSENP2); blunt.

In data set [1], “Ocr from phage T7 (DNA mimic, anti-restriction and anti-BREX protein) (from UniProt P03775 1-117) (natural protein)” gave a stoichiometry N (Ocr per PglX (1:2 PglX WT:Ocr)) of 2 and a stoichiometry N (Ocr per PglX (2:2 PglX WT:Ocr)) of 1.

Consider `C[S+](CC[C@H](N)C(=O)O)C[C@H]1O[C@@H](n2cnc3c(N)ncnc32)[C@H](O)[C@@H]1O` (stereo partly drawn) [SAM, S-adenosyl-L-methionine], for which the “X-ray crystal structure, 3.5 A” value in data set [2] was “crystallographic structure of Salmonella PglX bound to S-adenosyl-L-methionine (SAM), a co-factor for methylation”; in data set [3], “visible in the PglX-SAM:Ocr structure is a bound SAM molecule”.

B1: DNA 1 (TRB2180/TRB2181) (dsDNA)
DNA 1: GGTATCCGTTCGTCATAGGCTCAAAGCGTCTCCTGAGTCTCGGATCAGTACGAACTACCGGAACCAACACGACTGATCGTCTTCGGTGACCATTGCAACACTAGTATCTCGAGTGCCGTG
DNA 2: CACGGCACTCGAGATACTAGTGTTGCAATGGTCACCGAAGACGATCAGTCGTGTTGGTTCCGGTAGTTCGTACTGATCCGAGACTCAGGAGACGCTTTGAGCCTATGACGAACGGATACC
Turning to B1, the binding result in data set [4] is on record as “no binding”; in data set [5], “binds”.

B2: DNA 2 (TRB2182/TRB2183) (dsDNA)
DNA 1: GGTATCCGTTCGTCATAGGCTCAAAGCGTCTCCTGAGTCTCGGATCAGTACGAACTACCGGAACCAACACGAGATCAGGTCTTCGGTGACCATTGCAACACTAGTATCTCGAGTGCCGTG
DNA 2: CACGGCACTCGAGATACTAGTGTTGCAATGGTCACCGAAGACCTGATCTCGTGTTGGTTCCGGTAGTTCGTACTGATCCGAGACTCAGGAGACGCTTTGAGCCTATGACGAACGGATACC
As for B2, the values for the binding result in data set [4] and in data set [5] were “no binding” and “binds”, respectively.

B3: DNA 3 (TRB2184/TRB2185) (dsDNA)
DNA 1: GGTATCCGTTCGTCATAGGCTCAAAGCGTCTCCTGAGTCTCGGATCAGTACGAACTACCGGAACCAACACGACAATACGTCTTCGGTGACCATTGCAACACTAGTATCTCGAGTGCCGTG
DNA 2: CACGGCACTCGAGATACTAGTGTTGCAATGGTCACCGAAGACGTATTGTCGTGTTGGTTCCGGTAGTTCGTACTGATCCGAGACTCAGGAGACGCTTTGAGCCTATGACGAACGGATACC
Turning to B3, the binding result in data set [4] is given as “no binding”; in data set [6], “binds”.

B4: DNA 4 (TRB2186/TRB2187) (dsDNA)
DNA 1: GGTATCCGTTCGTCATAGGCTCAAAGCGTCTCCTGAGTCTCGTGTACCTACGAACTACCGGAACCAACACGACAATACGTCTTCGGTGACCATTGCAACACTAGTATCTCGAGTGCCGTG
DNA 2: CACGGCACTCGAGATACTAGTGTTGCAATGGTCACCGAAGACGTATTGTCGTGTTGGTTCCGGTAGTTCGTAGGTACACGAGACTCAGGAGACGCTTTGAGCCTATGACGAACGGATACC
Take B4: the binding result is listed as “binds” in data set [7] and “no binding” in data set [4].

The values are drawn from publication PMC11341690.
